Source: the nanobody polyreactivity screen of Harvey et al. (2022)

test: yeast display, Sf9 membrane polyspecificity reagent, FACS + sequencing; frameworks hold sequencing errors
Summary of the method: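 Nanobodies from a synthetic yeast display library (Saccharomyces cerevisiae BJ5465), induced 36–48 hours with galactose, were stained 1 hour at 4 °C with 10% biotinylated, detergent-solubilized Sf9 membrane reagent, enriched on streptavidin microbeads, then FACS-sorted. Anti-HA (expression) and streptavidin (reagent binding) fluorescence set low and high (top ~1%) gates. Polyreactivity labels come from the gate of origin. Genes were colony-PCR amplified, MiSeq 2 × 250 sequenced and filtered by CDR length.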

Which “polyreactivity (PSR sort gate)” value does the source give for “QVQLVESGGGLVQAGGSLRLSCAASGFTFNRNDMGWYRQAPGKERELVAAISTSGGRTYYADSVKGRFTISRDNAKNTVYLQMNSLKPEDTAVYYCAADGIYPVGVDYWGQGTQVTVSS” here?
The value was “high polyreactivity”.

For “QVQLVESGGGLVQAGGSLRLSCAASGSTFGYYAMGWYRQAPGKERELVAAINVSGGRTYYADSVKGRFTISRDNAKNTVYLQMNSLKPEDTAVYYCAASLYSYRSPYTFYYWGQGTQVTVSS”, which “polyreactivity (PSR sort gate)” value is on record?
The value was “high polyreactivity”.

With “QVQLVESGGGLVQAGGSLRLSCAASGLTFYLYAMGWYRQAPGKERELVAAISRSGGSTYYADSVKGRFTISRDNAKNTVYLQMNSLKPEDTAVYYCAAVTYYPEIRKYYYWGQGTQVTVSS” as the sequence, how does the “polyreactivity (PSR sort gate)” value read?
Its value is “high polyreactivity”.

Which “polyreactivity (PSR sort gate)” value does the source give for “QVQLVESGGGLVQAGGSLRLSCAASGSIFSYNAMGWYRQAPGKERELVAAITWSGGSTYYADSVKGRFTISRDNAKNTVYLQMNSLKPEDTAVYDCAAKGGYSTVRPTYTKFNYWGLGTQVTVSS” here?
Its value is “high polyreactivity”.

With “QVQLVESVGGLVQAGGSLRLSCAASGRIFAPYAMGWYRQAPGKERELVAAIRWRGGSTSYADSVKGRFTISRDNAKNTVYLQMNSLKPEDTAVYYCNADYGFSFYWYDYWGQGTQVTVSS” as the sequence, how does the “polyreactivity (PSR sort gate)” value read?
Its value is “low polyreactivity”.

Which “polyreactivity (PSR sort gate)” value does the source give for “QVQLVESGGGLVQAGGSLRLSCAASGRTFNRNAMGWYRQAPGKERELVAAISRGGGGTFYADSVKGRFTISRDNAKNTVYLQMNSLKPEDTAVYYCAAVPIAADKANGYDYWGQGTQVTVSS” here?
The value was “low polyreactivity”.

Which “polyreactivity (PSR sort gate)” value does the source give for “QFQLVESGGGLVQAGGSLRLSCAASGSTFAFYAMGRYRQAPGKERELVPAINLGGGSTYYAASVKGRFTISRDNAKNTVYLQMNSLKPEDTAVYYCAADFWTISWPVFDTYEYWGQGTQVTVSS” here?
The value was “low polyreactivity”.

Which “polyreactivity (PSR sort gate)” value does the source give for “QVQLVESGGGLVQAGGSLRLSCAASGFTFASYAMGWYRQAPGKERELVAAITRRGGSTNYADSVKGRFTISRDNAKNTVFLQMISLKPEDTAVYYCNDLHGVWDPAYDYWGQGTQVTVSS” here?
The value was “low polyreactivity”.

Which “polyreactivity (PSR sort gate)” value does the source give for “QVQLVESGGGLVQAGGSLRLSCAASGSTFYVYPMGWYRQAPGKERELVAAITRGGTTYYADSVKGRFTISRDNAKNTVYLQMNSLKPEDTAVYYCAKYLTGAADLVPEYDYWGQGTQVTVSS” here?
The value was “low polyreactivity”.

With “QVQLVESGGALVQAGGSLRLSCAASGLIYSHNAMGWYRQAPGKERELVAAISWRGGRTYYADSVKGRFTISRDNAKNTVYLLMNSLKPEDTAVFYCNKYYGKRYDYLGQGTQVTVSS” as the sequence, how does the “polyreactivity (PSR sort gate)” value read?
The value was “high polyreactivity”.

With “QVQLVESGVGIVQAGGSLRLSCAASGFTFSSNAMGWYSQAPGKEREFVADISIIGGDTTYADSVKGRFTISRDNAKNTVYFQMNSLKAEDTADYYCIAKPPGWFWGGFSYNRYYYWGQGTQVTVSS” as the sequence, how does the “polyreactivity (PSR sort gate)” value read?
Its value is “low polyreactivity”.

For “QVQLVESGGCLVQAGGSLRLSCAASGSIFLFNAMGWYRQAPGKDRELVATISWSGVVLRTYADSVKGRFTISRDNAKNTVYLQMNSLKPEDTAVYNCAARDLAFFTEYGYWGQGTQVSVSS”, which “polyreactivity (PSR sort gate)” value is on record?
Its value is “high polyreactivity”.

For “QVQLVESGGGLVQAGGSLRLSCAASGLIFGRYAMGWYRQAPGKERELVAGISGSGGITYYADSVKGRFTISRDTAKNTVYLQMHILKPEDTAVYYCATAAASHKYGYWGQGTQVTVSS”, which “polyreactivity (PSR sort gate)” value is on record?
The value was “low polyreactivity”.

With “QVQLVESGGGLVQAGGSLRLSCAASGLILVYYAMGWYRQAPGKERELVAAITPGGSTKYADSVKGRFTISRDNAKNTVYFQMNSLKPEDTAVYYCAVDGDWHEPGNYIYEYDYWGQGTQVTVSS” as the sequence, how does the “polyreactivity (PSR sort gate)” value read?
The value was “low polyreactivity”.

Which “polyreactivity (PSR sort gate)” value does the source give for “QVQLVESGGGLVQAGGSLRLSCAASGRIFTYYAMGWYRQAPGKERELVAAITGSGTSTYYADSVKGRFTISRDNAKNTVYLQMNSLKPEDTAVYYCAARNSYSRYYYWGQGTQVTVSS” here?
The value was “high polyreactivity”.

With “QVQLVESGGGLVQAGGSLRLSCAASGRTFNYYAMGWYRQAPGKERELVAAISGSGGRTYYADSVKGRFTISRDNAKNTVYLQMNSLKPEDTAVYYCNADVGKYPYAHTYWARRYYYLGQGTQVTVSS” as the sequence, how does the “polyreactivity (PSR sort gate)” value read?
The value was “high polyreactivity”.

For “QVQLVESGGGLVQAGGSLRLSCAASGRIFAYYAMGWYRQAPGKERELVAAISRGGGSTSYADSVKGRFTISRDNAKNTFYLQMNSLKPEDTAVYYCAKDRGYRYLGDYWGQGTQVTVSS”, which “polyreactivity (PSR sort gate)” value is on record?
The value was “low polyreactivity”.

With “QVQLVESGGGLVQAGGSLRLSCAASGSTFYANAMGWYRQAPGKEREFVADITISGGRTYYADSVKGRFTISRDNAKNTVYLQMNSLKPEDTAVYYWNTRGIFFQSQTHDYWGQGTQVTVSS” as the sequence, how does the “polyreactivity (PSR sort gate)” value read?
The value was “low polyreactivity”.

With “QVQLVESGGGLVHAGGSLRLSCAASGRIFFRYAMGWYRQSPGKEREFVATITWSGGRTHYADSVKGRFTISRDNAKNTVYLQMNSLKPEDTAVYYCAASYHRYAFDYWGQGTQVTVSS” as the sequence, how does the “polyreactivity (PSR sort gate)” value read?
Its value is “high polyreactivity”.

Which “polyreactivity (PSR sort gate)” value does the source give for “QVQLVESGGGLVQAGGSLRLSCAASGSTFSPYAMGCYRQAPGKERELVAAINYSSGSTYYADSVKGRFTISRDNAMNTVYLQLNSLKPEDTAVYYCATGWYAGFTYDYWGQGTQVTVSS” here?
The value was “low polyreactivity”.

With “QVQLVESGGGLVQAGGSLRLSCAASGFTFDDYTMGWYRPAPGKEREFVAAISSSGGSTYYADSVKGRFTISRDNAKNTVYLQMNSLKPVDTAVYYCAADARYYDYYEYDYWGQGTQVTVSS” as the sequence, how does the “polyreactivity (PSR sort gate)” value read?
The value was “high polyreactivity”.

Which “polyreactivity (PSR sort gate)” value does the source give for “QVQLVESGGGLVQAGGSLRLSCAASGSIFDDNTMGWYRQAPGKERELVAAISSRGGSTYYADSVKGRFTISRDNAKNTVYLQMNSLKPEDTAVYYCATGPRWTWEGSRWKLEFDSWGQGTQVTVSS” here?
Its value is “low polyreactivity”.

For “QVQLVESAGGLVQAGGSLRLICAATGRIYEIYAMGWYRQAPGTERELVATIDSGGSTNYADSVKGRFTISRDNAKNTVYLQMNSLQPEDTAVYYCAGGNPFYDSIGYDYWGQGTQVTVSS”, which “polyreactivity (PSR sort gate)” value is on record?
The value was “low polyreactivity”.

Which “polyreactivity (PSR sort gate)” value does the source give for “QVQLVESGGGLVQAGGSLRLRCAASGSIFYGYAMGWYRQAPGKESEFVAAITTTGGSTYYADSVKGRFTISRDNSKYTVYLQMNSLKPEDTAVYYCATSGDRLVWGQVTQVTVSS” here?
Its value is “low polyreactivity”.

With “QVQLVESGGGLVQAGGSLRLSCAASGFTFYVNAMGWYRQAPGKEREFVAAISASGASTRYADSVKGRFTISRDNAKNTVYLQMNSLKPEDTAVYYCAADAPAWILEAYGYWGQGTQVTVSS” as the sequence, how does the “polyreactivity (PSR sort gate)” value read?
Its value is “low polyreactivity”.

With “QVQLVESGGGLVQAGGSLRLSCAASGSTFRTYAMGWYRQAPGKERELVAAISVSGGRTYYADSVKGRFTISRDNAKKTVYLQMNSLKPEDTAVYYCAARQYRYELEYWGQGTQVTVSS” as the sequence, how does the “polyreactivity (PSR sort gate)” value read?
Its value is “low polyreactivity”.

With “QVQLVESRGGIVQAGGSLRLISAASGRTFGWNAKGWYRQERGKERELVAAISLRGTSTYYADSVKGRFTISRDNAKNTVYLQMNSLKPEDTAVYYCNTLVYVPYHEDYWGQGTQVTVSS” as the sequence, how does the “polyreactivity (PSR sort gate)” value read?
Its value is “high polyreactivity”.

For “QEQLQESGSGLVQAGGSLRLICAASRNIFQDWVMGWYRKEPGKEPELVAAISPGAITYYADSVKGRFTISRDNAKNTVYLQTNSLKPEDTAVYYCGAYYIVEYLHGYWGQGTRVTVSS”, which “polyreactivity (PSR sort gate)” value is on record?
Its value is “low polyreactivity”.

For “QVQLVESGGRLVQAGGSLRLSCAASGFIFRYNAMGWYRQAPGKERELVARITSSGGTTYYADSVKGRFTISRDSSKNTVYLQMNSLKPEDTAVYYCNARKVRYPYGWYDYWGQGTQVTVSS”, which “polyreactivity (PSR sort gate)” value is on record?
Its value is “high polyreactivity”.

Which “polyreactivity (PSR sort gate)” value does the source give for “QVQLEESGGGLVQAGGSLRLSCAASGSIFRNNSMGWYRKAPGKERVLVAVISRRSGNTYYADSVKGRLTISRDNAKNTVYLQMNSLKAEDTAVYYCAADYSKSSIRGEYWGQGTQVTVSS” here?
The value was “low polyreactivity”.

Which “polyreactivity (PSR sort gate)” value does the source give for “QVQLVESGGGLVQAGGSLRLSCAASGRIIAGYTMGWYRQAPGKERELVAAIRSSGRTHYADSVKGRFTISRDNAKNTVYLQMNSLKPEDTAVYYCAARWTYTFAYRFDYWGQGTQVTVSS” here?
Its value is “high polyreactivity”.

With “QVQLVESGGGLVQAGVSLRLSCAASGFIFEPSAMGWYRQAPGKERELVAAISSGGSTNADSVKGRFTISRDNAKNTVYLQMNSLKPEDTAVYYCAADSYYSVWGFYYWGQGTQVTVSS” as the sequence, how does the “polyreactivity (PSR sort gate)” value read?
Its value is “low polyreactivity”.
